The target of assay [1] is membrane-bound full-length human CD89 on HEK293F cells (human) (UniProt P24071). Description: FACS HEK293F-huCD89, 10 ug/mL; competitor PE-MIP8a.
Assay [2] has the same target. Description: FACS HEK293F-huCD89; non-aggregated serum IgA.
Assay [3] shares this target. Description: FACS, unlabelled antibody before A59-PE on HEK293F-huCD89. A general note: A flow cytometer gives signals particle by particle.
For assay [4] the target is unchanged. Description: FACS HEK293F-huCD89, 10 ug/mL; competitor PE-A59.
Assay [5] shares this target. As to the kind of experiment: FACS, antibody before heat-aggregated serum IgA on HEK293F-huCD89; IgA detected.
For assay [6] the target is unchanged. As to the kind of experiment: FACS HEK293F-huCD89, 10 ug/mL; heat-aggregated serum IgA (similar with non-aggregated).
Assay [7] has the same target. Description: FACS HEK293F-huCD89, titrated Ab; heat-aggregated serum IgA.
Assay [8] has the same target. Description: FACS, antibody before non-aggregated serum IgA on HEK293F-huCD89; IgA detected.
Assay [9] has the same target. Description: FACS HEK293F-huCD89, titrated Ab; non-aggregated serum IgA.
For assay [10] the target is unchanged. Description: FACS HEK293F-huCD89; heat-aggregated serum IgA.
Assay [11] has the same target. Description: FACS HEK293F-huCD89, 10 ug/mL; competitor PE-A3.
For assay [12] the target is unchanged. Description: FACS, antibody before serum IgA on HEK293F-huCD89; IgA detected.
Assay [13] has the same target. As to the kind of experiment: FACS, unlabelled antibody before A3-PE on HEK293F-huCD89.
The target is the same in assay [14]. Description: FACS, antibody before non-aggregated serum IgA on HEK293F-huCD89; IgA detected. This is another data set of the same source.
Assay [15] addresses recombinant C-terminal polyhistidine-tagged human (extracellular) CD89 (Sino Biological) (human) (UniProt P24071). Description: ELISA, antibody before serum IgA on coated rhuCD89; IgA detected.
For assay [16], the target named is membrane-bound full-length human CD89 on HEK293F cells (human) (UniProt P24071). As to the kind of experiment: FACS, antibody before secretory IgA on HEK293F-huCD89; IgA detected.
Assay [17] shares this target. Description: FACS, unlabelled antibody before MIP8a-PE on HEK293F-huCD89.
For assay [18] the target is unchanged. Description: FACS on HEK293F-huCD89.
Assay [19] deals with recombinant C-terminal polyhistidine-tagged human (extracellular) CD89 (Sino Biological) (human) (UniProt P24071). Description: ELISA on coated rhuCD89. Background: ELISA stands for enzyme-linked immunosorbent assay.
In assay [20] the target is membrane-bound full-length human CD89 on HEK293F cells (human) (UniProt P24071). Description: FACS, antibody before heat-aggregated serum IgA on HEK293F-huCD89; IgA detected. This is another data set of the same source.
The target in assay [21] is membrane human CD89 on ex vivo primary human neutrophilic granulocytes or monocytic U937 cells (human) (UniProt P24071).

Where only a bound is given, the exact number is not on record here.

Take “mouse anti-human CD89 antibody clone A59 (BD Biosciences)”: in [1], the % blocking of PE-MIP8a binding was less than 25%. The maximum inhibition of IgA binding in assay [2], in assay [7], in [9] and in [10] was 60% in each case. Moreover, the IC50 (read off the curve) came to 0.6 µg/mL in [3], 1 µg/mL in [5] and 1 µg/mL in assay [8]. The substance also displayed a % blocking of PE-A59 binding in assay [4] of more than 90%. Moreover, the % blocking of IgA binding in assay [6] is 60%. For the same substance, the % blocking of PE-A3 binding in [11] is more than 90%.

“mouse anti-human CD89 antibody clone MIP8a (BioRad)”: the IC50 (read off the curve) in [12] stood at 0.2 µg/mL; in assay [13], 0.2 µg/mL; in [14], 0.2 µg/mL; in [15], 0.07 µg/mL; in [16], 0.4 µg/mL; in [5], 0.7 µg/mL. For the same substance, the IC50 (read off the curve) in assay [17] was 0.3 µg/mL; in assay [20] it was 0.2 µg/mL; in [8], 0.7 µg/mL. This substance came in with a % blocking of PE-MIP8a binding in assay [1] of more than 90%. Also, the % blocking of PE-A59 binding in assay [4] stood at 50%. Moreover, the results for the EC50 (read off the curve) in [18] and in assay [19] were 0.2 µg/mL and 0.02 µg/mL, respectively. The substance further returned an IC50 (read off the bars), binding of granulocytes to plate-bound serum IgA [Donor 3] in assay [21] of 0.6 µg/mL. The same substance returned a % blocking of PE-A3 binding in assay [11] of 55%.

In turn, “mouse anti-human CD89 antibody clone A3 (Santa Cruz Biotechnology)” gave a % blocking of PE-MIP8a binding in assay [1] of less than 25%. For the same substance, the maximum inhibition of IgA binding in [2], in assay [7], in [9] and in assay [10] was 60% throughout. For the same substance, the IC50 (read off the curve) was 0.4 µg/mL in assay [13]; 0.4 µg/mL in assay [14]; 0.7 µg/mL in assay [5]; 0.4 µg/mL in [20]; 0.8 µg/mL in [8]. This substance returned a % blocking of PE-A59 binding in assay [4] of more than 90%. In assay [6], this substance returned a % blocking of IgA binding of 60%. This substance registered a % blocking of PE-A3 binding in assay [11] of more than 90%.

The EC50 (read off the curve) is the concentration that produces a half-maximal response.

The values are drawn from patent US20230242646A1.
